Numbering of substitutions follows the chain as printed. Like-named read-outs stand apart in the source and are kept apart here.
What was measured:
[1] = target: T1, cynomolgus TNFSF9 (cTNFSF9) protein, soluble recombinant (cynomolgus); assay: SPR (Biacore)
T1 construct: extracellular domain; also called cynomolgus TNFSF9 protein

[2] = target: T2, hTNFSF9-His (monomeric human TNFSF9 extracellular domain with 9x-Histidine tag) (human, UniProt P41273 50-254); assay: SPR (Biacore)
T2 construct: also called hTNFSF9-His protein; monomeric hTNFSF9-His antigen

[3] = target: T3, cynomolgus TNFSF9 (cTNFSF9), full length, overexpressed on HEK293T cells (cynomolgus); assay: cell-based or functional assay
[4] = target: T4, human TNFSF9 (hTNFSF9), full length, overexpressed on HEK293T cells (human, UniProt P41273 1-254); assay: cell-based or functional assay
[5] = target: T5, human TNFSF9 (R&D Systems; #2295-4L-025/CF) (human, UniProt P41273 71-254, limits assumed); assay: MSD ELISA: TNFSF9 + 1 ug/mL antibody, binding to coated TNFRSF9
T5 construct: also called TNFSF9 (ligand); TNFSF9 ligand

[6] = target: T5, human TNFSF9 (R&D Systems; …); assay: as above; remark: listed apart in the source
[7] = target: T3, cynomolgus TNFSF9 (cTNFSF9), full …; assay: cell-based or functional assay; remark: listed apart in the source
[8] = target: T4, human TNFSF9 (hTNFSF9), full length, …; assay: cell-based or functional assay; remark: listed apart in the source
[9] = target: T1, cynomolgus TNFSF9 (cTNFSF9) protein, …; assay: SPR (Biacore); remark: listed apart in the source
[10] = target: T2, hTNFSF9-His (monomeric human TNFSF9 …); assay: SPR (Biacore); remark: listed apart in the source

T5 sequence (P41273 71-254 limits assumed): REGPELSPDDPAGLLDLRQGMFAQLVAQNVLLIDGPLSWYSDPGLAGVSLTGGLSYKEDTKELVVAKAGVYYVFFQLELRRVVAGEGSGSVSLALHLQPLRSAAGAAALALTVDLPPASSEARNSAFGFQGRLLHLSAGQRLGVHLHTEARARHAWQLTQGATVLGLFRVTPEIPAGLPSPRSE
T2 sequence (P41273 other isoform, or with tags, fused parts or gaps): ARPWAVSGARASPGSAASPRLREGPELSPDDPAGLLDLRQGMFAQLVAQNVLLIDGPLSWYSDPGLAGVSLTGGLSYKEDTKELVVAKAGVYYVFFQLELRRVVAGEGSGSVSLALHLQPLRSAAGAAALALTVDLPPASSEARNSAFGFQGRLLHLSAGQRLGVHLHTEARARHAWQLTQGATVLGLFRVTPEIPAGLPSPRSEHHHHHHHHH

B1: SC113.44 (antibody, mouse IgG1, V domains shown)
VH: QVQLQQSGPELVKPGTSVRISCKASGYTFTSYYIHWVKQRPGQGLEWIGWIYPRDVDTKYNETFKGKATLTADKSSSTAYIQLNSLTSEDSAVYFCARELTGTVFDYWGQGTTLTVSS
VL: QIVLSQSPAILSASPGEKVTMTCRASSSVTYMHWYQRKPGSSPKPWIYATSTLASGVPARFSGTGSGTSYSLTISRVEAEDAATYFCQQWSSNPLTFGAGTKLELK
notes: mouse IgG1
[1]
  Kd: 13 nM
[2]
  Kd: 9 nM
[3]
  % live cells, Fab-saporin killing, 250 pM antibody: 33.9%
[4]
  % live cells, Fab-saporin killing, 250 pM antibody: 10.8%
[5]
  % inhibition of ligand receptor interaction: 48%

B2: SC113.121 (antibody, V domains shown)
VH: EVQLQQSGAELVKPGASVNLSCTASGFNIKDYYMHWMKQRPEQGLEWIGRIDPENGETRYAPKFQDKATITADTSSNTAYLQLRSLTSEDTAIYYCGRLDFYFDFWGQGTTLTVSS
VL: B1 VL with T30S, R37Q, T52N, T64S, F86Y, L95P, A99S, L105I
[5]
  % inhibition of ligand receptor interaction: 98%

B3: SC113.167 (antibody, V domains shown)
VH: B2 VH with N19K, M37V, E46Y, N55A, K63N, D66G, G97A, F105S
VL: QIVLSQSPAILSASPGEKVTMTCRASSSVSYMHWYQQKPGSSPKPWIYATSNLASGVPGRFSGSGSGTSYSLTISRVEAEDTATYYCQQWFTNPPTFGSGTKLEIK
[5]
  % inhibition of ligand receptor interaction: 89%

B4: SC113.150 (antibody, V domains shown)
VH: B2 VH with N19K, M34L, A61G, D66G, T74A, F105Y
VL: B3 VL with K18R, S30N, M32I, G59A, V77M, T82A, F91S, T92S, E104A
[5]
  % inhibition of ligand receptor interaction: 98%

B5: SC113.36 (antibody, mouse IgG1, V domains shown)
VH: QVQLKESGPDLVAPSQSLSITCTVSGFSLTSYGVHWVRQPPGKGLEWLGVIWAGGFTNYNSALMSRLSISKDNSKSQVFLKMSSLQTDDTAMYYCVREKDYRYSHYFDYWGQGTTLTVSS
VL: DIVMSQSPSSLAVSVGEKVTLSCKSSLSLLYSSNQENYLAWYQQKPGQSPKLLIYWASTRESGVPDRFTGSGSGTDFTLTISSVKAEDLAVYYCQQYYSYPRTFGGGTKLEIK
notes: mouse IgG1
[1]
  Kd: 12 nM
[2]
  Kd: 3 nM
[3]
  % live cells, Fab-saporin killing, 250 pM antibody: 102%
[4]
  % live cells, Fab-saporin killing, 250 pM antibody: 17.8%
[6]
  % inhibition of ligand receptor interaction: 23%

B6: SC113.51 (antibody, mouse IgG2a, V domains shown)
VH: B5 VH with T21I, P40S, F56L, S83N, H105Y
VL: B5 VL
notes: mouse IgG2a
[7]
  % live cells, Fab-saporin killing, 250 pM antibody: 108%
[8]
  % live cells, Fab-saporin killing, 250 pM antibody: 15.5%
[9]
  Kd: 28 nM
[10]
  Kd: 3 nM
[5]
  % inhibition of ligand receptor interaction: 99%

B7: SC113.153 (antibody, V domains shown)
VH: QVQLKQSGPGLVQPSQSLSITCTVSGFSLTSYGVHWVRQSPGKGLEWLGVIWSGGSTDDNAAFISRLSISKDNSKSQVFFKMNSLQADDTAIYYCARNYYYDGRYYAMDYWGQGTSVTVSS
VL: DIVLTQSPASLAVSLGQRATISCRASESVEYYGTSLMQWYQQKPGQPPKLLIYVASNVESGVPVRFSGSGSGTDFSLNIHPVEEDDIAMYFCQQSRKVPWTFGGGTKLEIK
notes: Murine hybridoma antibody
[6]
  % inhibition of ligand receptor interaction: -84%

B8: SC113.148 (antibody, V domains shown)
VH: B7 VH with L11P, L67M, S70T, F80L, I92K, D102E, A107V, T118I
VL: B7 VL with A9V, V54A, V64A
[6]
  % inhibition of ligand receptor interaction: -63%

B9: SC113.201 (antibody, V domains shown)
VH: QVQLKQSGPSLVQPSQSLSITCTVSGFSLTNYGVHWVRQSPGKGLEWLGVIWRGGGTDSNAAFMSRLTITKDNSKSQVFFKMSSLQADDTAIYYCAKNTRYDARGYYAMDYWGQGTSVTVSS
VL: not shown
[6]
  % inhibition of ligand receptor interaction: -66%

B10: SC113.57 (antibody, V domains shown)
VH: QVQLKQSGPGLVPPSQSLSISCTVSGFSLTTYGVHWVRQSPGKGLEWLGVIWSGGTTDDNAAFISRVSITKDNSKSQVFFKMNSLQADDTAIYYCAKNSYYGNLHYYTMDYWGQGTSVTVSS
VL: not shown
notes: Murine hybridoma antibody with kappa light chain; also called SC113.57 capture antibody
[7]
  % live cells, Fab-saporin killing, 250 pM antibody: 9.3%
[8]
  % live cells, Fab-saporin killing, 250 pM antibody: 11.6%
[6]
  % inhibition of ligand receptor interaction: -35%
[9]
  Kd: 4 nM
[10]
  Kd: 5 nM

B11: SC113.219 (antibody, V domains shown)
VH: QVQLKQSGAELVRPGASVKLSCRASGYTFTDFYINWVKQRPGQGLEWIARIYPGSGNTHYNENFKGKATLTAEKSSSTAYMQLSSLTSEDSAVYFCAREVWDAMDHWGQGTSVTVSS
VL: SIVMTQSPKSMSISVGERVTLSCKASENVGTYVSWYQQKPEQSPKLLIYGASNRYTGVPDRFTGSGSSAEFTLTISSVQAEDLADYYCGQSSSFPIFTFGTGAKLEIK
[6]
  % inhibition of ligand receptor interaction: -37%

B12: huSC113.57 (antibody, V domains shown)
VH: QVTLKESGPVLVKPTETLTLTCTVSGFSLSTYGVHWIRQPPGKALEWLAVIWSGGTTDDNAAFISRVTISKDNSKSQVVLTMTNMDPVDTATYYCARNSYYGNLHYYTMDYWGQGTTVTVSS
VL: EIVLTQSPATLSLSPGERATLSCRASESVDSYGISFLNWYQQKPGQAPRLLIYAASNQGSGIPARFSGSGSGTDFTLTISSLEPEDFAVYYCQQSKEVPWTFGGGTKVEIK
notes: also called hSC113.57 (humanized SC113.57)
[6]
  % inhibition of ligand receptor interaction: -38%

B13: SC113.61 (antibody, V domains shown)
VH: EVQLVESGGDLVKPGGSLKLSCAASGFTFSNYGMSWVRQTPDKRLEWVATISNGGISTYYPDSVKGRFTISRDNAKNTLYLQMNSLKSEDTAMYYCVRPGRGYFDYWGQGTTLTVSS
VL: DIVMTQAAPSVPVTPGESVSISCRSNKSLLHSDGNTYLYWFLQRPGQSPQLLIYRMSNLASGVPDRFSGSGSGTAFTLRISRVEAEDVGVYYCMQHLEYPWTFGGGTKLEIK
modifications: MSD SULFO-TAG NHS Ester label on amines (sites not given)
notes: Murine hybridoma antibody, sulfo-tagged for use as detection antibody; The label may sit on either chain; also called SC113.61 detection antibody
[7]
  % live cells, Fab-saporin killing, 250 pM antibody: 29%
[8]
  % live cells, Fab-saporin killing, 250 pM antibody: 23%
[9]
  Kd: 11 nM
[10]
  Kd: 6 nM
[5]
  % inhibition of ligand receptor interaction: 48%

B14: SC113.70 (antibody, mouse IgG2b, V domains shown)
VH: DVQLQESGPDLVKPSQSLSLTCTVTGYSITSGYTWHWIRQFPGNKLEWMGYIIYSGGTNYNPSLKSRISITRDTSKNQFFLQLNSVTPEDTATYYCASLLRPLDYWGQGTTLTVSS
VL: B13 VL with N26S, D33N, N35D, Y37F, W101F, G105A, I111L
notes: mouse IgG2b
[7]
  % live cells, Fab-saporin killing, 250 pM antibody: 101%
[8]
  % live cells, Fab-saporin killing, 250 pM antibody: 95.1%
[6]
  % inhibition of ligand receptor interaction: 46%
[9]
  Kd: 81 nM
[10]
  Kd: 11 nM

B15: SC113.46 (antibody, V domains shown)
VH: QIQLVQSGPELKKPGETVKISCKASGYSFTNYGMNWVKQTPRKGLKWVGWINTYTGETTYADDFKGRFAFSLETSASTAYLQINNLKNEDMATYFCARIYGYGWFAYWGQGTLVTVSA
VL: DIQMTQSPSSLSASLGERVSLTCRASQEISGYLSWLQQKPDGTIKRLIYAASTLDSGAPKRFSGSRSGSDYSLIISSLESEDFADYYCLQYSSYPYTFGGGTKLEIK
notes: mouse antibody, isotype N/A
[1]
  Kd: 16 nM
[2]
  Kd: 4 nM
[3]
  % live cells, Fab-saporin killing, 250 pM antibody: 31.3%
[4]
  % live cells, Fab-saporin killing, 250 pM antibody: 28.3%

B16: SC113.133 (antibody, V domains shown)
VH: QVQLQQSGAELVRPGSSVKISCKASGYAFSSSWINWVKQRPGQGLEWIGQIYPGDGDTNYNGKFKGKATLTADKSSNTAYLQLNSLTSEDSAVYFCARTPIFAYWGQGTLVTVSA
VL: B15 VL with S34T, T53I, A58V, I74T, S92A, Y96W
[5]
  % inhibition of ligand receptor interaction: 66%

B17: SC113.35 (antibody, mouse IgG2b, V domains shown)
VH: DVQLQESGPDLVKPSQSLSLTCTVTGYSITSGYGWHWIRQFPGNKLEWMGYIDYSGNNNYNPSLKSRISITRDTSKNQLFLQLNSVTAEDTATYFCARIYYDAMDYWGQGTSVTVSS
VL: DIVMTQSHKFMSTSVGERVSITCKASQDVGGAVAWYQQKPGQSPKLLIYWASTRHTGVPDRFTGSGSGTDFTLTISNVQSEDLADYFCQQYSSYPLTFGAGTKLDLK
notes: mouse IgG2b
[1]
  Kd: 10 nM
[2]
  Kd: 4 nM
[3]
  % live cells, Fab-saporin killing, 250 pM antibody: 69.6%
[4]
  % live cells, Fab-saporin killing, 250 pM antibody: 28.5%
[5]
  % inhibition of ligand receptor interaction: 73%

From patent publication US20190016812A1 (AbbVie / Abbott, published 2019)
